According to the domain aggregation screens of Martell et al. (2025):

Assay: soluble fraction after stress (log2 fold change); higher = more stays soluble; pooled small domains, quantitative proteomics
Conditions: stress: 50 degC
Method in brief: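 Quantitative proteomics served as the high-throughput read-out for pooled custom libraries of small protein domains. Each was stressed at 50°C. Aggregation propensity is expressed as the base-two log fold change in soluble protein after stress. A higher value means a larger share of the protein remains in solution.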

In order of rising “soluble fraction (log2)” value:
1. HMNDVGKVLNQLGERDRMILLLTYWDELPLKEAARILEVSENNAKIILFRARSRFASLWSAGS  -3.13
2. HMIDYIKYTVDGKTYELINNWDGTWSRELEAPLVAGRYDLLLEISQNGLVTYIDSSDPRYEFYLDVI  -3.12
3. HMDAKQLQSLKNNNEQLAGFIVRLTNFYEGLSPDIDAELSKLRSHLSGKVDYTLATVSINKINQLFMLEP  -2.6
4. HMNKMHKLPSVSEILNKVRLQKIHNESFIKFKIKEEIDRYRKLAKKDQLFLSRDEITYEIIEKLLNFSMPS  -2.57
5. HMKSIRIPFILTEGPNSQKITIDIDSDEEFRIGDVFDEDDKLWSINQILISGDRKAKMAIASEVTSISALR  -2.39
6. HMDVLKVFSHNVRRYRTQLGLSQETVAFRTGLHRTYISAVERGKRSISLDNIQKIADALEVETYLLFI  -1.72
7. HMNMPHEIDANFISSLGRLIDNHGKNYGDFQIFREMFLDYFPRFDELSSNNKEKINRRLYKFFETLFG  -1.71
8. HMSVFGDNVARLRAEHGMSQRALAERLEITNGTVAAWESRDTLPDYDRIRQIAEIFDVPIPQLFAKYIP  -1.66
9. HMSSPVGIAQATTYVYVRAGHSMQAAKVGVLSPGEKVGVTGRSAQGFSEVVYNGVHRWVGSRYLSPT  -1.4
10. HMLGARSLNEAVARNLPQILAKYQLIHIAGKNGFNPELQGRGYVQYEYVDTELKDLMALADIVVSR  -1.33
11. HMSDLLYAHPTEKGFQLVNVTQKVVMVILKTAAPNVYTVKGKNAIVFKEGNSWFYSENHNKKLLNIK  -1.13
12. HMTNYGTVRPGARGQAVTALQQALIRHGYKLTADGIYGRATRQAVRAFQQKHKLKVDGIVGSKTWALLLAD  -1.04
13. HMAGLKERLFYFIEYKGLTVQSFEKTVGLSNGAVSKMGDNTRRSTIDKISNFFGDLNKNWLLTGEGEMLI  -0.99
14. HMKQYSFEISKADFKKISENFNFKIINEINDSLIISLNDKNINLDELLIFFVERKIKVRSIENI  -0.986
15. HMQGAARGMLFAQAQRWMTKFRIDPQQADRITQAALDPAQTDAILREVRRGYGPSAERALRGIIRRARRA  -0.968
16. HMDYRSMSGLQKAALLIMSVGEETAAKLFQLMHDDEIREISQTMANLGTVNATVIERLFVEFADAISS  -0.966
17. HMRQVFPNPSSSQIKLASSRIGQAFSILDQQGRVVLSGKVSEEAVIALENLAKGIYVLKIGSWSETILK  -0.903
18. HMLSLTSRQQEIFDLIKGHIKKTGMPPTRSEIALHFGFRSANSAEEHLRALARKGFIELIPGTSRGIKLIE  -0.892
19. HMHVSLSGKIHSELRKLILNGELKAGERLPSEPDLAHELGVSRNSLREAIGLLQREGLLLKKHGIGTFVTD  -0.829
20. HMATRLPFGFAKRFGVLVEGKDDQITVYHKDGLQTAVILEIQRYLARPFRFEAVTPEEFERRLGLAYQS  -0.808
21. HMGDTVSGTMLNLKPGVRVVHQIFGPGRVEETTGASLAEFRVTVRFEQKGLKTLLLQYAALQVINSEN  -0.795
22. HMSIYMNIYNEFKKYIIANVYKYDDKLPSVRSIALEYGINPNTVQRAFQLLEDEGYIKTISKKGVYVNYR  -0.781
23. HMQISDNTILEDAVSRIIDENPKSVSDYFQGKEAVVGFFIGQIMRETKGTANPKIAREIVISHLEAI  -0.778
24. HMDDERDRLVQQAMEGLSPALREILLLAYFQRMPYNQIAESLRIPLGTVKSRLHAAVAAFAKRWQELNRS  -0.693
25. HMPDTETLTPRQRQILDLVQELGFTTIETLAERFGVSAQTVRREIIRLQAGNFLQRFHGGAGLASGGIRSA  -0.632
26. HMDLQAAWLQTVRHLLAHTEDVGDRFAEEARRIHYGEEPHRGIRGQATPEERLALREEGIETMSIPV  -0.631
27. HMGRELSDLELSLLRILDDKIPLLIDEAADRLQLPVAQVLSAVTIMEIDGLIRREGMRKYLRTVEVEETK  -0.499
28. HMLPQYELIKQYLRHQIETGEWPIGYRTPSEPKLAEQFSVSRMTARRALQELADQGLLSRTAGSGTFVAKP  -0.483
29. HMVNTVEVQGNTIYSAEEIRSASGIQKGDNLFTLNKEAAAGSIKASLPYVETVSIIRFLPDKIVIEVKE  -0.473
30. HMGLSNYEFNSISQTVKEKLEQGPLTLKALVDETAHLFAEDKVVSVVQWLIDQRDLAYDDHGLLQWKG  -0.418
31. HMDAIIVPSVLKMKPFEAEEKLSALGLRMKINDTVYIDNMKPGVIVEQSPTAEEDVKTDRVIYVIVNA  -0.404
32. HMTNIELYQRLLNLGFTPAQAKILLVQYDETRLTDNLNYVDFKKQQGNIENLPAYTTTIIKKDVRL  -0.389
33. HMNKTQLQIEDEVLKPLIAEIFSKSKGRFGARKIRSKLMGLGYTASERRILRLMKELGLSSAG  -0.378
34. HMTLSENEKIIVDTIMKYQPLHIDVLNQQVKVDFYTLLGLLTKLEMEGIVLKNPGNIYKINTL  -0.346
35. HMEIGELITLYRKQAGLTIDELSEKANVPKGTLNKIIGGITKAPTLETMRSIAYALGKKLADFDN  -0.34
36. HMHVGVWIMNEKGEILLEQRASNKKVDPNKWARIGGHVDAGEKPIQAIQREILEEIGVKIPLENFIVLET  -0.335
37. HMTFSDKIRELRKQKGVSQAVVAEYLGITKQAYSLYETGKREPDFDSLLKLAEYFGTDTDSLLY  -0.309
38. HMLPVYSITEAAERLDIPASTIKWYADRFASYISPSKGKGRKRFTPEDLATLQKIHELSQDHTTEEAEAML  -0.281
39. HMGVGVKSTEVDYQRTSSGSDIPTDDAAWTKTIPAVKVNTFLWTRTKINYTDGTSAIFYSVGY  -0.281
40. HMESPSGGHRIALAFDQGTARAVDATYARLTGAGYEGRTKPWDAPWGQRYATVFDPDGNSVDLFAALE  -0.263
41. HMARAVSPLEAIPGVGPRRRQQLLKQLGGMQEVARAGVEDLSRVPGISRALAQQIYDAFHGD  -0.149
42. HMNMEYQKAINHIVQMVKDGQLIVGSKIPSERDLSESLGIGRNSTREAISILRGMGLVESRHGSGNYIAKD  -0.148
43. HMNPTLPYGFAKRHGVILLEAGEVAVVGLREGADPAALIETRRALGRPLRVEPLDQATFDRRLSQVYA  -0.148
44. HMDSILSIVGGEESYKALLAWAENNISQQELQQLETILKSGNVPAIKRVLVTLMNRFNQAQS  -0.147
45. HMEETGFYIKLQDQEVVIFHNDQVTPYEYTGIREEVLPESELEKLREGFFVEDEKELYSVLENLS  -0.142
46. HMTFEPVYDENSRILILGTFPSVKSREQQFYYGHPQNRFWKLLAALTGWKVPKTISEKKELLLQNGIA  -0.136
47. HMSKIVPVAYSQFLKDVKNGNVSQVEIRGNNIKGINNNGSSFSTYAPNDLSLIDKLEKSNVEIIVMPLE  -0.125
48. HMVVVLPGETIKIDLIREGKDKQALGYLEDGTMIVVDNAKHLIGKNVEIEIDNVLPKEAGRVIFASLHGA  -0.109
49. HMDIEVEVPNLVGMSLDEAKSIIQSMGLVVGLTIEDPSAKVSDNSVTKQKPTYQTGVKLRSGDMIDIWYAG  -0.102
50. HMTAMQYVTIKDIADALGISKSSVSRALAGDVHNVSAQTIERVRAKALEMGYLRNNAAVNLR  -0.0718
51. HMQESTPGEGYKWREDVLLRVMSQNGIDESLRDEFVRHAVNYDIDDNMYLKKAEIESAAEAWVLENS  -0.0581
52. HMPTITIQRGIILSSTTKGFIDELSHSQIKNAIVERLGEHHVMIHESQLDAVIKYAQKKEAVINIYL  -0.0325
53. HMAKIEVENLEETILENLKANNGFMPYNDKTSPEEIYEVFHVSKKHFKNSLGGLMKKGLIFQNEKGTKL  -0.0312
54. HMSMHVHTPNPDFKPSNTNALQEGQLVEHPKFGFGKVQKIETEGLNKKASIQFEHFGEKTLLLSFAKLRII  0.0178
55. HMDPKWSHVRRLLDDENPIVRKALTEELIRSPEEGLAFLEQVIREPDHLLAKHAHNLLSELGWV  0.0264
56. HMKPEQIELTFSGTTAMRLDKFLAENQPGLSRAKLQAIISSGSVEVNGKVITKQAFKLDPGDLVKALIPE  0.0295
57. HMEPVIELGDRTLPIEITRHRRARRLTLRLAADGSAVRITLPHWARSAEATAFAHARRDWLAAQLAK  0.0378
58. HMSTTHLTASVIKDKVNVRSEADSQNGAIIDKARTGERLLVTDYGNKWTGIVLPDGKRGYIMTEYLQF  0.0443
59. HMEDPVAQEARAAFEVGRLLAAATGPVTLAAIRRAIDLPEERLEEILRRLEESGAVRRARDGWLPG  0.0888
60. HMQKDAYVPDIISKLKSSRMIVVEGTIYPLLTRLKNTGLLSYRWEESLQGPPRKYYSITEQG  0.112
61. HMQDKIWVVDETQLYPKLIEAMSEGKAVIHDGVAYWAEGSGKTGVIQHLPFKETTVQNVEEAIKLAQ  0.169
62. HMPASTSIPYSDFISRVESGDVQEAKIGESAITGTYKDGSQFKTVKPPTLDTNLMPTLIQNKVNVVGVEP  0.18
63. HMDSSALEPIVDQIIADNPKQVEQFQAGKTKVLGFFVGQVMKQTDGTANPKQVNELVAARLKSA  0.181
64. HMSADEVSQQLTSEQTKSKSYQALLQAYAAYQQKSFDDAALELQNVQQDVLSDSQKTIYNTISQAVNS  0.185
65. HMAEVALFVNGSDVNLRSGPGQESTRVIGSLNLGDEVRIKSQNGQWREVYVPKTRQVGWVAHWLLSEAPP  0.192
66. HMEAVLTISPGMYSESVSAELVRLGIITNQKEFNSYLVNNGYAERIQTGDFKIKADMSYDEIARIITK  0.231
67. HMEEFIEHTVEKGEFLSAIIVAYNQHLKSKGFKSITTRDILNANPKLKPELIQVGQKIKIPRRKK  0.29
68. HMTEAVYMPALQNKTLEEAQRIVEQYDLELEYTYEANAQVEEGRILSQTPQMGVLVERGEKVQAVVSLG  0.571
